Results published in patent publication US7951562B2, “Method for glycosylating hydroxylysine residues in polypeptides or peptides” (Oulun Yliopisto, priority 2000, dated 2011).

How the values were obtained:
Format in all cases: biochemical
[1] = system: galactosylhydroxylysyl residues in calf skin gelatin substrate; assay: GGT (glucosyltransferase) activity of recombinant proteins expressed in Sf9 insect cells; conditions: for GGT activity, Dpm/plate: Sf9 cells transfected by LH3 constructs; for GGT activity, %: relative to nonmutated LH3 construct; for GGT activity in cell lysates: Sf9 cells, 72 hours after infection
Text: The glucosyltransferase activity can be assayed as described in Myllylä et al. (1975). The method is based on the transfer of radioactively (tritium) labelled glucose from UDP-glucose to galactosylhydroxylysyl residues in calf skin gelatin substrate and on the specific assay of the product of the enzyme reaction after alkaline hydrolysis.
(§1) Commercially available baculovirus transfer vector pFastBacI in the BAC-TO-BAC™ expression system (Life technologies, Inc.) was modified to contain human LH1 signal peptide (Hautala et al., 1992) and His6 tag, and BamHI restriction site for insertion of the desired cDNA, nucleotides 289-2455 of LH3 cDNA (SEQ ID NO 6) (Valtavaara et al., 1998). The construct was confirmed by sequencing. The recombinant protein contains His tag at the amino-terminus after signal peptide cleavage. Insect cells were harvested 0-72 hours after infection and homogenized according to the protocol described earlier (Valtavaara et al., 1997).
Human LH1 signal peptide and His6 tag was inserted to the cDNA constructs of LH1 and LH2. The baculovirus transfer vector pFastBacI was modified so that human LH1 signal sequence followed by nine nucleotides of the amino-terminal end was ligated to the His6 tag followed by nucleotides for BamHI restriction site. The human cDNA sequence (LH1 or LH2) (SEQ ID NO 21, 23 and 25) starting from the likely amino-terminal end of the molecule was ligated to the BamHI site of the construct. Two expression constructs were generated for LH2, LH2a and LH2b (SEQ ID NO 23 and 25), both of them covered the nucleotides from 76 to 2267 (Valtavaara et al., 1997). The LH2b construct contained also the alternatively spliced exon sequence (Valtavaara 1999; Yeowell and Walker, 1999) between nucleotides 1500 and 1501 (SEQ ID NO 25). The constructs were confirmed by sequencing. Insect cells were grown and homogenized as described above.
(§2) LH activity was assayed by a method based on the hydroxylation-coupled decarboxylation of 2-oxo(1-^14C)glutarate (Kivirikko and Myllylä 1982), synthetic peptide […] was used as a substrate. GGT activity was assayed as described elsewhere (Myllylä et al. 1975). The method is based on the transfer of radioactively (tritium) labelled glucose from UDP-glucose to galactosylhydroxylysyl residues in calf skin gelatin substrate and on the specific assay of the product of the enzyme reaction after alkaline hydrolysis.

[2] = system: synthetic peptide IKGIKGIKG; assay: LH (lysyl hydroxylase) activity of LH3 constructs expressed in Sf9 cells; conditions: for LH3 activity, Dpm/plate: Sf9 cells transfected by LH3 constructs; for LH3 activity, %: relative to nonmutated LH3 construct
Text: (§3) The lysyl hydroxylase activity can be assayed by a method based on the hydroxylation-coupled decarboxylation of 2-oxo(1-^14C)glutarate (Kivirikko and Myllylä 1982), synthetic peptide […] was used as a substrate.
as §1, §2

[3] = system: hydroxylysyl residues in a calf skin gelatin substrate; assay: GT activity of recombinant proteins expressed with baculovirus vector in Sf9 cells; conditions: baculovirus vector in insect cells, not shown
Experimental: Baculovirus transfer vector pFastBacI in the BAC-TO-BAC™ expression system was used to produce LH3 protein in Sf9 cells. The cDNA construct is in Example 1. The recombinant protein contains the His tag at the amino terminus after signal peptide cleavage. The cells were homogenized as described elsewhere (Valtavaara et al. 1997).
GT and GGT activities were measured by a method based on the transfer of radioactively (tritium)-labeled sugar from UDP-sugar to hydroxylysyl or galactosylhydroxylysyl residues in a calf skin gelatin substrate, respectively (Myllylä et al. 1975). The specific detection of the reaction products was performed after alkaline hydrolysis.

[4] = system: hydroxylysyl residues in a calf skin gelatin substrate; assay: GT (galactosyltransferase) activity of recombinant proteins expressed in E. coli; conditions: E. coli cell supernatant, FIG. 12
Text: The galactosyltransferase activity can be assayed as described in Myllylä et al. (1975). The method is based on the transfer of radioactively (tritium) labelled galactose from UDP-galactose to hydroxylysyl residues in calf skin gelatin substrate and on the specific assay of the product of the enzyme reaction after alkaline hydrolysis.

[5] = system: synthetic peptide IKGIKGIKG; assay: LH activity of human LH isoforms expressed in E. coli; conditions: E. coli expression system, data not shown
Text: as §3
PFastBacI constructs for human LH1, LH2a, LH2b and LH3 were cleaved with BamHI and Hind III restriction enzymes and coding regions were subcloned into same site in E. coli expression vector pQE30 containing (His)6 tag at the amino terminus. Insert for C. elegans LH (corresponding to amino acids 14-730 in cDNA) was generated by PCR and ligated into SacI-PstI site of pOE30 vector. Constructs were transformed into E. coli XL1-Blue strain. Cultures were grown to OD600 of 0.6 at 37° C. Protein expression was induced by adding 1 mM IPTG and incubation was proceed at 30° C. for 5 hours. Cells were harvested and stored at −20° C. For activity measurements cell pellet was suspended to lysis buffer (0.4 M NaCl, 0.5% Nonident and 20 mM Tris-HCl pH 7.8, at 20° C.) and incubated in the presence of lysozyme (50 μg/ml), DNAase (10 μg/ml) and RNAase (10 μg g/ml) at room temperature for 30 minutes. Lysis was completed by sonication. Cell debris was pelleted and supernatant was used in the measurements.

Molecule | GGT activity, Dpm/plate [1] | GGT activity, % [1] | LH3 activity, Dpm/plate [2] | LH3 activity, % [2] | generation of GT activity [3] | generation of GT activity [4] | GGT activity in cell lysates [1] | LH activity [5]
Mutation 2: human LH3 mutant, amino acids 25-520 normal, amino acids 521-738 missing (protein, listed as Homo sapiens) SDRPRGRDPVNPEKLLVITVATAETEGYLRFLRSAEFFNYTVRTLGLGEEWRGGDVARTVGGGQKVRWLKKEMEKYADREDMIIMFVDSYDVILAGSPTELLKKFVQSGSRLLFSAESFCWPEWGLAEQYPEVGTGKRFLNSGGFIGFATTIHQIVRQWKYKDDDDDQLFYTRLYLDPGLREKLSLNLDHKSRIFQNLNGALDEVVLKFDRNRVRIRNVAYDTLPIVVHGNGPTKLQLNYLGNYVPNGWTPEGGCGFCNQDRRTLPGGQPPPRVFLAVFVEQPTPFLPRFLQRLLLLDYPPDRVTLFLHNNEVFHEPHIADSWPQLQDHFSAVKLVGPEEALSPGEARDMAMDLCRQDPECEFYFSLDADAVLTNLQTLRILIEENRKVIAPMLSRHGKLWSNFWGALSPDEYYARSEDYVELVQRKRVGVWNVPYISQAYVIRGDTLRMELPQRDVFSGSDTDPDMAFCKSFRDKGIFLHLSNQHEFGRLLATSR | 180000 Dpm/plate | 23% | <300 Dpm/plate | <5% |  |  |  | 
LH1: recombinant human lysyl hydroxylase isoform 1, His-tagged (protein, listed as Homo sapiens, His6 tag, recombinant human lysyl hydroxylase isoform 1, His-tagged) MRPLLLLALLGWLLLAEAKGDAKPEDNLLVLTVATKETEGFRRFKRSAQFFNYKIQALGLGEDWNVEKGTSAGGGQKVRLLKKALEKHADKEDLVILFTDSYDVLFASGPRELLKKFRQARSQVVFSAEELIYPDRRLETKYPVVSDGKRFLGSGGFIGYAPNLSKLVAEWEGQDSDSDQLFYTKIFLDPEKREQINITLDHRCRIFQNLDGALDEVVLKFEMGHVRARNLAYDTLPVLIHGNGPTKLQLNYLGNYIPRFWTFETGCTVCDEGLRSLKGIGDEALPTVLVGVFIEQPTPFVSLFFQRLLRLHYPQKHMRLFIHNHEQHHKAQVEEFLAQHGSEYQSVKLVGPEVRMANADARNMGADLCRQDRSCTYYFSVDADVALTEPNSLRLLIQQNKNVIAPLMTRHGRLWSNFWGALSADGYYARSEDYVDIVQGRRVGVWNVPYISNIYLIKGSALRGELQSSDLFHHSKLDPDMAFCANIRQQDVFMFLTNRHTLGHLLSLDSYRTTHLHNDLWEVFSNPEDWKEKYIHQNYTKALAGKLVETPCPDVYWFPIFTEVACDELVEEMEHFGQWSLGNNKDNRIQGGYENVPTIDIHMNQIGFEREWHKFLLEYIAPMTEKLYPGYYTRAQFDLAFVVRYKPDEQPSLMPHHDASTFTINIALNRVGVDYEGGGCRFLRYNCSIRAPRKGWTLMHPGRLTHYHEGLPTTRGTRYIAVSFVDP |  |  |  |  | did not generated GT activity | LH3 was the only one being able to generate GT activity | none of these recombinant proteins had detectable GGT activity | no LH activity can be found
Mutation 1: human LH3 mutant, amino acids 25-231 normal, amino acids 232-356 modified (frame shift) (protein, listed as Homo sapiens) SDRPRGRDPVNPEKLLVITVATAETEGYLRFLRSAEFFNYTVRTLGLGEEWRGGDVARTVGGGQKVRWLKKEMEKYADREDMIIMFVDSYDVILAGSPTELLKKFVQSGSRLLFSAESFCWPEWGLAEQYPEVGTGKRFLNSGGFIGFATTIHQIVRQWKYKDDDDDQLFYTRLYLDPGLREKLSLNLDHKSRIFQNLNGALDEVVLSLIGTVCVSGTWPTTRSPLWSMETVPLSCSSTTWETTSPMAGLLREAVASATRTGGHSRGGSLPPGCFWPCLWNSLLRFCPASCSGCYSWTIPPTGSPFSCTTTRSSMNPTSLTPGRSSRTTSQL | 650 Dpm/plate | 0.1% | <300 Dpm/plate | <5% |  |  |  | 
LH2a: recombinant human lysyl hydroxylase isoform 2, alternatively spliced form a (protein, left off: small tags and cut ends, recombinant human lysyl hydroxylase isoform 2, alternatively spliced form a) ADSEKPSSIPTDKLLVITVATKESDGFHRFMQSAKYFNYTVKVLGQGEEWRGGDGINSIGGGQKVRLMKEVMEHYADQDDLVVMFTECFDVIFAGGPEEVLKKFQKANHKVVFAADGILWPDKRLADKYPVVHIGKRYLNSGGFIGYAPYVNRIVQQWNLQDNDDDQLFYTKVYIDPLKREAINITLDHKCKIFQTLNGAVDEVVLKFENGKARAKNTFYETLPVAINGNGPTKILLNYFGNYVPNSWTQDNGCTLCEFDTVDLSAVDVHPNVSIGVFIEQPTPFLPRFLDILLTLDYPKEALKLFIHNKEVYHEKDIKVFFDKAKHEIKTIKIVGPEENLSQAEARNMGMDFCRQDEKCDYYFSVDADVVLTNPRTLKILIEQNRKIIAPLVTRHGKLWSNFWGALSPDGYYARSEDYVDIVQGNRVGVWNVPYMANVYLIKGKTLRSEMNERNYFVRDKLDPDMALCRNAREMGVFMYISNRHEFGRLLSTANYNTSHYNNDLWQIFENPVDWKEKYINRDYSKIFTENIVEQPCPDVFWFPIFSEKACDELVEEMEHYGKWSGGKHHDSRISGGYENVPTDDIHMKQVDLENVWLDFIREFIAPVTLKVFAGYYTKGFALLNFVVKYSPERQRSLRPHHDASTFTINIALNNVGEDFQGGGCKFLRYNCSIESPRKGWSFMHPGRLTHLHEGLPVKNGTRYIAVSFIDP |  |  |  |  | did not generated GT activity | LH3 was the only one being able to generate GT activity | none of these recombinant proteins had detectable GGT activity | no LH activity can be found
Mutation 4: human LH3 mutant, amino acids 25-668 normal, amino acids 669-698 modified (protein, listed as Homo sapiens) SDRPRGRDPVNPEKLLVITVATAETEGYLRFLRSAEFFNYTVRTLGLGEEWRGGDVARTVGGGQKVRWLKKEMEKYADREDMIIMFVDSYDVILAGSPTELLKKFVQSGSRLLFSAESFCWPEWGLAEQYPEVGTGKRFLNSGGFIGFATTIHQIVRQWKYKDDDDDQLFYTRLYLDPGLREKLSLNLDHKSRIFQNLNGALDEVVLKFDRNRVRIRNVAYDTLPIVVHGNGPTKLQLNYLGNYVPNGWTPEGGCGFCNQDRRTLPGGQPPPRVFLAVFVEQPTPFLPRFLQRLLLLDYPPDRVTLFLHNNEVFHEPHIADSWPQLQDHFSAVKLVGPEEALSPGEARDMAMDLCRQDPECEFYFSLDADAVLTNLQTLRILIEENRKVIAPMLSRHGKLWSNFWGALSPDEYYARSEDYVELVQRKRVGVWNVPYISQAYVIRGDTLRMELPQRDVFSGSDTDPDMAFCKSFRDKGIFLHLSNQHEFGRLLATSRYDTEHLHPDLWQIFDNPVDWKEQYIHENYSRALEGEGIVEQPCPDVYWFPLLSEQMCDELVAEMEHYGQWSGGRHEDSRLAGGYENVPTVDIHMKQVGYEDQWLQLLRTYVGPMTESLFPGYHTKARAVMNFVVRYRPDEQPSLRPHHAHPPSPSTLPSTTRAWTMREVAAASCATTV | 360000 Dpm/plate | 47% | <300 Dpm/plate | <5% |  |  |  | 
